# Laboratory results as given in patent US9202600B2, “Method for production of radioisotope preparations and their use in life science, research, medical application and industry” (priority 2005, dated 2015).
# “Also recorded” adds a separate entry of the source.
# Experiments:
# Daudi cells = experiment: Survival of SCID mice i.v. xenografted with Daudi cells (leukemia model) after immunotherapy or radioimmunotherapy; format: in vivo; conditions: for protection / disease status over 120 days observation: 5.5 MBq 149Tb-labeled Rituximab (5 μg), single i.v. injection
# Protocol: Daudi cells (ATCC Nr. CCL-213) were used to simulate a leukemia model in mice. The cells were cultured in RPMI 1640 medium supplemented with 10% heat-inactivated fetal calf serum and 0.5% penicillin (10000 U/ml)/streptomycin (10 mg/ml) (Sigma-Aldrich). The cell suspension to be injected into mice was prepared by centrifuging the culture for 3 min at 1200 rpm, washing with PBS and re-suspending in PBS at 2.5-10^7 cells per ml.
# (§1) The in vivo studies were performed using 26 female SCID mice (C.B.-17/ICR, Iffa Credo) under the authorization Nr: GE 31.1.1049/1879/11. The mice, which were 8 weeks old at the start of the experiment and weighed 20 g on average, were kept in sterile, ventilated boxes. […] Each mouse received 5-10^6 Daudi cells by injection of 0.2 ml cell suspension in PBS into the tail vein. […] According to the authorized protocol the mice were surveyed for 120 days: their behavior was logged each day, their condition was supervised once a week by a veterinarian, and they were weighed three times a week. At the appearance of obvious signs of paralysis, visible tumor masses, or a weight loss of >15%, the mice were sacrificed. One mouse was sacrificed shortly after injection (2 h p.i.) and kept deep-frozen for later analysis, in order to act as a reference for later quantification of the daughter radioactivity distribution.
# The survival of animals until sacrifice because of disease development or the end of the experiment (no disease development) was compared between the different groups according a Kaplan Meier analysis using the Lee-Desu evaluation of the Unistat 3.0 statistical package (Megalon, Novato Calif., USA).
# [1] = Biodistribution of 149Tb-labeled Rituximab and retention of long-lived daughter radioactivity (gamma spectroscopy of organs); format: in vivo, SCID mice; conditions: for Biodistribution, Liver: SCID mouse, 2 h p.i. (i.v.)
# Protocol: as §1
# Organ samples were taken from the sacrificed mice and the radioactivity concentration of the long-lived daughter products was determined by using high-resolution gamma spectroscopy (18% HP—Ge detector in combination with the Gamma spectrometer Genie 2000, Canberra). Whole, intact mice, as well as isolated organ samples were measured. Since the radioactivity content of the samples was essentially very low, long measuring times (between 1 and 24 hours) were applied.
# CD20 = target: T1, CD20 (Homo sapiens, UniProt P11836); experiment: Cell binding of the labeled antibody; format: cell-based; conditions: without extrapolation to infinite antigen excess
# T1 construct: endogenous in cells
# T1 sequence (P11836 1-297): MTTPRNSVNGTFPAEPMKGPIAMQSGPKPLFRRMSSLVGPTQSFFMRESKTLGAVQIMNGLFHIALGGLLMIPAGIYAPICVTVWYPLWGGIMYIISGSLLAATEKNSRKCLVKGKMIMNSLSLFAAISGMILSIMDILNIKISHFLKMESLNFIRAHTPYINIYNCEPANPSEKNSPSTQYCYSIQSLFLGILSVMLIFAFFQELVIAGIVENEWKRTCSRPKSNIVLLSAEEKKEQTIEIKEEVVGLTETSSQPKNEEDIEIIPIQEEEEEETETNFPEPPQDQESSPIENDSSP
# Protocol: 25-40 μl of the ^149Tb solution characterized above was used immediately for the labeling procedure. The pH was adjusted to 5.5 by adding 60 μl of 3 M CH3COONH4 solution, followed by the addition of 10 μl (40 mg/ml) ascorbic acid. After adding 5 μl of a stock solution of the chelated antibody in PBS (10 mg/ml) the mixture was incubated for 10 min at room temperature, before dilution to a final volume of 1.0 ml in PBS-1% human serum. […] The injection of the radioimmuno-conjugate into the mice was performed 1 h after EOS. The in vitro behavior of the labeled bioconjugate (immunoreactivity, cell binding, cell killing efficiency) has been described in a previous paper [Vranjes S D, Miederer M, Comor J J, Soloviev D, Beyer G-J and the ISOLDE collaboartion. Labeling of monoclonal antibodies with 149-Th for targeted alpha therapy. J Lab Comp Radiopharm 2001; 44:718-720]. With the same antibody the inventors observed up to 55% cell binding without extrapolation to infinite antigen excess.
# [2] = Daughter nuclide ingrowth and shelf-life of the 149Tb-labeled bioconjugate; format: physicochemical; conditions: for increase of the long-lived daughter content, factor: fixed dose applied 4 hours after the final purification of the isotope (EOS)
# Protocol: Spallation reaction in combination with on line mass separator technology was used for the production of ^149Tb for this study. The radiochemical separation and purification of the […] was relatively easy to perform in about 30 minutes in this specific case, since the inventors started from non-carrier added preparations. The final ^149Tb preparation was obtained in very high purity and in a small volume, the labeling of the bioconjugate was fast (10 minutes) and almost quantitative. The administration of the preparation should be carried out as rapidly as possible after purification of the ^149Tb, since levels of contamination with daughter nuclides will increase with time. For example, application of a fixed dose of the ^149Tb-labeled bioconjugate 4 hours after the final purification of the isotope itself (EOS) leads to an increase of the long-lived daughter content by a factor of 2. According to the preliminary dose estimation one could define a shelf-life for the labelled ^149Tb-labeled bioconjugate of about 4-6 hours. For a longer delay it would be advisable to repurify the ^149Tb from the accumulated daughter products, a process that could be expected to require 30 minutes.
# [3] = listed as 149Tb-CHX-A-DTPA-Rituximab
# [4] = Group 3, 5 μg 149Tb-labeled Rituximab (5.55 MBq) i.v. 2 days after Daudi cell inoculation
# [5] = 2 h p.i., listed as 149Tb-CHX-A-DTPA-Rituximab
substance,measurement,setting,value
^149Tb-labeled Rituximab,time after which the only mouse of the group was lost (abdominal tumor growth),Daudi cells; 5.5 MBq 149Tb-labeled Rituximab (5 μg Rituximab per animal),48 days
same,protection / disease status over 120 days observation,Daudi cells,almost complete protection; also recorded: long-term survival without evidence of any disease at 120 days
same,protection / disease status over 120 days observation,Daudi cells; [3],without any visible signs of a disease
same,protection / disease status over 120 days observation,Daudi cells; listed as 149Tb-CHX-DTPA-Rituximab,almost completely protected
same,Follow-up (120 days after the therapy): no pathologic changes,Daudi cells; [4],89% no
same,"Follow-up (120 days after the therapy): paralyzed, abdominal tumor",Daudi cells; [4],"11% paralyzed,"
same,"tumor free survival for >120 days, share of treated animals","Daudi cells; SCID mice, single i.v. 5.5 MBq labeled conjugate (5 μg Rituximab) 2 days after i.v. graft of 5·10^6 Daudi cells",89%
same,signs of toxicity over four months,Daudi cells; xenografted SCID mice treated with 149Tb-labeled Rituximab,without detectable signs of toxicity
same,"Biodistribution, Body total",[1]; 2 h p.i.,100 % i.d./Organ
same,"Biodistribution, Bone",[1]; 2 h p.i.,9.1 ± 0.7 %/g tissue
same,"Biodistribution, Muscles",[1]; 2 h p.i.,<0.2 %/g tissue
same,"Biodistribution, Bone","[1]; 2 h p.i., bone total calculated as 9 × both femur activity",13 ± 1 % i.d./Organ
same,"Biodistribution, Kidney","[1]; 2 h p.i., both kidneys measured together, listed as 149Tb-CHX-A-DTPA-Rituximab",24 %/g tissue
same,"Biodistribution, Heart",[1]; [5],41 %/g tissue
same,"Biodistribution, Spleen",[1]; [5],42 %/g tissue
same,share of the retained daughter activity located in bone tissue,[1]; 120 days after injection,91.1%
same,"Remaining daughter radioactivity, Blood",[1]; 120 d p.i.,<0.01 % i.d./Organ
same,"Remaining daughter radioactivity, Body total (retention of the long-lived daughter products)",[1]; 120 d p.i.,28.4 ± 4 % i.d./Organ
same,"Remaining daughter radioactivity, Bone",[1]; 120 d p.i.,13 ± 2 %/g tissue
same,"Remaining daughter radioactivity, Heart",[1]; 120 d p.i.,<0.01 % i.d./Organ
same,"Remaining daughter radioactivity, Lung",[1]; 120 d p.i.,<0.01 % i.d./Organ
same,"Remaining daughter radioactivity, Muscles",[1]; 120 d p.i.,<0.02 % i.d./Organ
same,"Remaining daughter radioactivity, Bladder","[1]; 120 d p.i., bladder measured with urine",<0.01 % i.d./Organ
same,"Remaining daughter radioactivity, Bone","[1]; 120 d p.i., bone total calculated as 9 × both femur activity",26 ± 4 % i.d./Organ
same,"Remaining daughter radioactivity, Body total (retention of the long-lived daughter products)","[1]; 120 d p.i., listed as 149Tb-CHX-A-DTPA-Rituximab",28.4±4 % i.d./Organ
same,"Remaining daughter radioactivity, Body total (retention of the long-lived daughter products)","[1]; 120 d p.i., listed as labeled antibody conjugate",28.4±4 % i.d./Organ
same,"Biodistribution, Liver",[1],18 ± 3 % i.d./Organ
same,"Biodistribution, Liver",[1]; [3],18±3 % i.d./Organ
same,primary injected radioactive atoms excreted from the mice,[1]; after 120 days,71.6%
same,cell binding,CD20,up to 55%
same,shelf-life,[2]; defined according to the preliminary dose estimation,4 to 6 h
same,"increase of the long-lived daughter content, factor",[2]; listed as 149Tb labeled bioconjugate,increase the activity of the daughter product be by a factor 2. In this way
same,"increase of the long-lived daughter content, factor",[2]; listed as 149Tb-labeled bioconjugate,2
